In the supplement of paper PMC11246515:
± gives the standard deviation of the averaged measurements.

Assay: total protein half-life in vivo (active degradation + dilution); higher = more stable protein
[1] = E. coli NCM3722 delta-clpP delta-lon delta-hslV, growth: N-lim chemostat, doubling time 6 h
[2] = wild type E. coli NCM3722, growth: C-lim chemostat, doubling time 3 h
[3] = wild type E. coli NCM3722, growth: C-lim chemostat, doubling time 6 h
[4] = wild type E. coli NCM3722, growth: C-lim chemostat, doubling time 12 h
[5] = E. coli NCM3722 delta-clpP, growth: N-lim chemostat, doubling time 6 h
[6] = E. coli NCM3722 delta-hslV, growth: N-lim chemostat, doubling time 6 h
[7] = E. coli NCM3722 delta-smpB, growth: N-lim chemostat, doubling time 6 h
[8] = wild type E. coli NCM3722, growth: N-lim chemostat, doubling time 6 h
[9] = wild type E. coli NCM3722, growth: N-lim chemostat, doubling time 12 h
[10] = wild type E. coli NCM3722, growth: P-lim chemostat, doubling time 12 h
[11] = wild type E. coli NCM3722, growth: P-lim chemostat, doubling time 6 h

Sequence | total protein half-life in vivo [1] [h] | total protein half-life in vivo [2] [h] | total protein half-life in vivo [3] [h] | total protein half-life in vivo [4] [h] | total protein half-life in vivo [5] [h] | total protein half-life in vivo [6] [h] | total protein half-life in vivo [7] [h] | total protein half-life in vivo [8] [h] | total protein half-life in vivo [9] [h] | total protein half-life in vivo [10] [h] | total protein half-life in vivo [11] [h] | total protein half-life in vivo (E. coli NCM3722 delta-lon, growth: N-lim chemostat, doubling time 6 h) [h]
MKIGTVAGTNDSTTTIATNDMVQEHVTNFTKELFGYIANGIGDDISSIARTMLGEVVEKIDDWQIERFQQSIQDDKISFTIQTDHSEKYSMLSGMRAHILRRNNNYQFIVTINSKNYGCSLDNTDINWCSIVYLLNNMTVNDNANDVAVTESYKPIWNWKISQYNVSDIKFETMIKPQFADRIYFSNCLPVDPTSTRPTYFGDTDGSVGAVLFALFATGHLGIMAEGENFLSQLLNIEDEVLNVLLRENFNEQLNTNVNTIISILNRRDIILESLQPYLVINKDAVTPCTFLGDQTGDRFSNICGDQFIIDLLKRIMSINENVHVLAGNHETNCNGNYMQNFTRMKPLDEDTYSGIKDYPVCFYDPKYKIMANHHGITFDDQRKRYIIGPITVSIDEMTNALDPVELAAIINKKHHAIINGKKFKTSRAISCRSFNRYFSVSTDYRPKLEALLACSQMLGINQVVAHNGNGGRERIGETGTVLGLNARDSKHAGRMFSMHNCQINPGAGPEITTPWKSYQHEKNRNGLMPLIRRRTMLQL | 5.59 ± 0.23 |  |  |  |  |  |  |  |  |  |  | 
MSKKLIALCACPMGLAHTFMAAQALEEAAVEAGYEVKIETQGADGIQNRLTAQDIAEATIIIHSVAVTPEDNERFESRDVYEITLQDAIKNAAGIIKEIEEMIASEQQ | 4.54 ± 0.89 | 2.27 ± 0.1 | 4.02 ± 0.38 | 5.83 ± 0.31 |  |  |  |  |  |  |  | 
MFNEVHSIHGHTLLLITKSSLQATALLQHLKQSLAITGKLHNIQRSLDDISSGSIILLDMMEADKKLIHYWQDTLSRKNNNIKILLLNTPEDYPYRDIENWPHINGVFYSMEDQERVVNGLQGVLRGECYFTQKLASYLITHSGNYRYNSTESALLTHREKEILNKLRIGASNNEIARSLFISENTVKTHLYNLFKKIAVKNRTQAVSWANDNLRR |  |  |  |  | 1.72 ± 0.18 | 0.584 | 0.772 | 0.875 | 1.84 | 1.48 ± 0.36 |  | 
MSTTNHDHHIYVLMGVSGSGKSAVASEVAHQLHAAFLDGDFLHPRRNIEKMASGEPLNDDDRKPWLQALNDAAFAMQRTNKVSLIVCSALKKHYRDLLREGNPNLSFIYLKGDFDVIESRLKARKGHFFKTQMLVTQFETLQEPGADETDVLVVDIDQPLEGVVASTIEVIKKGK | 5.07 ± 0.67 | 3.02 ± 0.08 | > 8 | 8.67 | 4.474 ± 0.042 | 4.01 | 4.121 ± 0.011 | 3.92 ± 0.44 | 6.38 ± 0.14 | 9.14 ± 0.42 | 4.1 | 
MHSTEVQAKPLFSWKALGWALLYFWFFSTLLQAIIYISGYSGTNGIRDSLLFSSLWLIPVFLFPKRIKIIAAVIGVVLWAASLAALCYYVIYGQEFSQSVLFVMFETNTNEASEYLSQYFSLKIVLIALAYTAVAVLLWTRLRPVYIPKPWRYVVSFALLYGLILHPIAMNTFIKNKPFEKTLDNLASRMEPAAPWQFLTGYYQYRQQLNSLTKLLNENNALPPLANFKDESGNEPRTLVLVIGESTQRGRMSLYGYPRETTPELDALHKTDPNLTVFNNVVTSRPYTIEILQQALTFANEKNPDLYLTQPSLMNMMKQAGYKTFWITNQQTMTARNTMLTVFSRQTDKQYYMNQQRTQSAREYDTNVLKPFQEVLNDPAPKKLIIVHLLGTHIKYKYRYPENQGKFDGNTDHVPPGLNAEELESYNDYDNANLYNDHVVASLIKDFKAANPNGFLVYFSDHGEEVYDTPPHKTQGRNEDNPTRHMYTIPFLLWTSEKWQATHPRDFSQDVDRKYSLAELIHTWSDLAGLSYDGYDPTRSVVNPQFKETTRWIGNPYKKNALIDYDTLPYGDQVGNQ [P0CB39] | 6.57 ± 0.15 | 3.504 ± 0.028 | 6.41 ± 0.11 | 13 ± 0.88 | 7 ± 0.21 |  | 6.49 ± 0.29 | 6.03 ± 0.069 | 13 ± 0.74 | 13.1 ± 0.49 | 6.4 ± 0.18 | 6.52 ± 1.3
MKKILTTPIKAEDLQDIRVGDVIYLTGTLVTCRDVCHRRLIELKRPIPYDLNGKAIFHAGPIVRKNGDKWEMVSVGPTTSMRMESFEREFIEQTGVKLVVGKGGMGPLTEEGCQKFKALHVIFPAGCAVLAATQVEEIEEVHWTELGMPESLWVCRVKEFGPLIVSIDTHGNNLIAENKKLFAERRDPIVEEICEHVHYIK [P0AC35] | 6.21 |  |  |  |  |  |  |  |  |  |  | 
MAYYSIGDVAERCGINPVTLRAWQRRYGLLKPQRSEGGHRLFDEEDIQRIEEIKRWISNGVPVGKVKALLETTSQDTEDDWSRLQEEMMSILRMANPAKLRARIISLGREYPVDQLINHVYLPVRQRLVLDHNTSRIMSSMFDGALIEYAATSLFEMRRKPGKEAILMAWNVEERARLWLEAWRLSLSGWHISVLADPIESPRPELFPTQTLIVWTGMAPTRRQNELLQHWGEQGYKVIFHAP | 4.63 ± 0.56 | 2.13 ± 0.29 | 3.02 ± 0.39 | 4.42 ± 0.35 | 3.95 ± 2.5 | 1.93 | 1.79 ± 0.14 | 2 ± 0.16 | 2.72 ± 0.041 | 5.43 | 1.39 ± 0.094 | 
